Like-named read-outs stand apart in the source and are kept apart here.
Tests used:
[1] = target: human plasminogen (human) (UniProt P00747); assay: SPR
[2] = target: human plasminogen (human) (UniProt P00747); assay: SPR; remark: listed apart in the source
[3] = target: human plasminogen (human) (UniProt P00747); assay: SPR; remark: listed apart in the source
[4] = target: human plasminogen (human) (UniProt P00747); assay: SPR; remark: listed apart in the source
[5] = target: human plasminogen (human) (UniProt P00747); assay: SPR; remark: listed apart in the source
[6] = target: PAM_(NS88.2), PAM of GAS isolate NS88.2 (emm98.1), residues 42-385 (Streptococcus pyogenes (GAS) isolate NS88.2 (emm98.1)) (UniProt P49054); assay: AUC
[7] = target: PAM_(NS88.2), PAM of GAS isolate NS88.2 (emm98.1), residues 42-385 (Streptococcus pyogenes (GAS) isolate NS88.2 (emm98.1)) (UniProt P49054); assay: AUC; remark: listed apart in the source
[8] = target: PAM_(NS223), PAM of GAS isolate NS223 (emm91), residues 42-399 (Streptococcus pyogenes (GAS) isolate NS223 (emm91)); assay: AUC
[9] = target: PAM_(NS223), PAM of GAS isolate NS223 (emm91), residues 42-399 (Streptococcus pyogenes (GAS) isolate NS223 (emm91)); assay: AUC; remark: listed apart in the source
[10] = target: PAM_(NS455), PAM of GAS isolate NS455 (emm52), residues 42-401 (Streptococcus pyogenes (GAS) isolate NS455 (emm52)); assay: AUC
[11] = target: PAM_(NS455), PAM of GAS isolate NS455 (emm52), residues 42-401 (Streptococcus pyogenes (GAS) isolate NS455 (emm52)); assay: AUC; remark: listed apart in the source
[12] = target: PAM_(SS1448), PAM of GAS isolate SS1448 (emm86.2), residues 42-375 (Streptococcus pyogenes (GAS) isolate SS1448 (emm86.2)) (UniProt P49054); assay: AUC
[13] = target: PAM_(SS1448), PAM of GAS isolate SS1448 (emm86.2), residues 42-375 (Streptococcus pyogenes (GAS) isolate SS1448 (emm86.2)) (UniProt P49054); assay: AUC; remark: listed apart in the source
[14] = target: PAM_(SS1572), PAM of GAS isolate SS1572 (emm223), residues 42-399 (Streptococcus pyogenes (GAS) isolate SS1572 (emm223)); assay: AUC
[15] = target: PAM_(SS1572), PAM of GAS isolate SS1572 (emm223), residues 42-399 (Streptococcus pyogenes (GAS) isolate SS1572 (emm223)); assay: AUC; remark: listed apart in the source
[16] = target: PAM_(SS1574), PAM of GAS isolate SS1574 (emm224), residues 42-360 (Streptococcus pyogenes (GAS) isolate SS1574 (emm224)) (UniProt P49054); assay: AUC
[17] = target: PAM_(SS1574), PAM of GAS isolate SS1574 (emm224), residues 42-360 (Streptococcus pyogenes (GAS) isolate SS1574 (emm224)) (UniProt P49054); assay: AUC; remark: listed apart in the source
human plasminogen [18] = target: T1, human plasminogen (human, UniProt P00747 20-810); assay: SPR
T1 sequence (P00747 20-810): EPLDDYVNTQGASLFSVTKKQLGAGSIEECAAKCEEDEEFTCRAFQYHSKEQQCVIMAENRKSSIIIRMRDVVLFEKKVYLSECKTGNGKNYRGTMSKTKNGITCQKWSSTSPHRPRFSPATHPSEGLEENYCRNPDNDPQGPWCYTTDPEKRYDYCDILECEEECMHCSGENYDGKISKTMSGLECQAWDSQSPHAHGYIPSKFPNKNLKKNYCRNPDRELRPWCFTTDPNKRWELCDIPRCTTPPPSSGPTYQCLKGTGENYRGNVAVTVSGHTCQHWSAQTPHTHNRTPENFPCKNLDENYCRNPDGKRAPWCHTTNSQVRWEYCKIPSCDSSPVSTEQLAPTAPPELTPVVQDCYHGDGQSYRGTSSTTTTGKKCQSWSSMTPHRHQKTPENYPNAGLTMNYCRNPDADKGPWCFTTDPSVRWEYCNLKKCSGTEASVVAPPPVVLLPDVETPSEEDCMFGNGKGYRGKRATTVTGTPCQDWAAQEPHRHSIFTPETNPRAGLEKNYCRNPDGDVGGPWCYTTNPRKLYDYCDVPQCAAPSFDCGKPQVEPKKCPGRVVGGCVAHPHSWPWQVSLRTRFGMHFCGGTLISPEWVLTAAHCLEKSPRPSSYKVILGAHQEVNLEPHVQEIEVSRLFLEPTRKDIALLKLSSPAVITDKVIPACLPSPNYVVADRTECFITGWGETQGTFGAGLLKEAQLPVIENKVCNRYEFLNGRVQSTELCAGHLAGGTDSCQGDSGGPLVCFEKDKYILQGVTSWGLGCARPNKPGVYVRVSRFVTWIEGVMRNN

human plasminogen [19] = target: T1, human plasminogen; assay: SPR; remark: listed apart in the source
human plasminogen [20] = target: T1, human plasminogen; assay: SPR; remark: listed apart in the source
human plasminogen [21] = target: T1, human plasminogen; assay: SPR; remark: listed apart in the source
human plasminogen [22] = target: T1, human plasminogen; assay: SPR; remark: listed apart in the source

Chain of human plasminogen (human) (P00747 20-810): as above

In the case of “AGL55_(NS88.2), peptide of PAM_(NS88.2) residues 95-149 (from UniProt P49054 95-149)”, the Kd [1] is reported as 160 nM, the Kd [2] is reported as 350 nM and the Kd [3] is reported as 630 nM. It also gave a Kd [4] of 830 nM and a Kd [5] of 7100 nM.

Work on “KTI55_(SS1448), peptide of PAM_(SS1448) residues 85-139 (from UniProt P49054 85-139)” yielded a Kd [1] of 360 nM, a Kd [2] of 540 nM and a Kd [3] of 2100 nM. It also gave a Kd [4] of 1500 nM and a Kd [5] of 27000 nM.

In the case of “PAM_(AP53), plasminogen-binding group A streptococcal M-protein of GAS isolate AP53 (emm53), residues 42-392 (natural protein)”, the Kd [1] is reported as 21 nM, the koff [1] is reported as 0.0043 s⁻¹ and the kon [1] is reported as 210000 M⁻¹ s⁻¹.

Molecule “PAM_(NS88.2), PAM of GAS isolate NS88.2 (emm98.1), residues 42-385 (from UniProt P49054 42-385) (natural protein)” has a Kd [1] of 5700 nM, a % dimer [6] of 91.4% and a % dimer [7] of 55.5%.

“PAM_(NS223), PAM of GAS isolate NS223 (emm91), residues 42-399 (natural protein)” was tested, and the koff [1] was 0.0056 s⁻¹, the % dimer [8] was 94.5% and the % dimer [9] was 33.7%.

In the case of “PAM_(NS455), PAM of GAS isolate NS455 (emm52), residues 42-401 (natural protein)”, the Kd [1] is reported as 6 nM, the koff [1] is reported as 0.0014 s⁻¹ and the kon [1] is reported as 340000 M⁻¹ s⁻¹. For the same molecule, the % dimer [10] was 86.8% and the % dimer [11] was 20.4%.

Molecule “PAM_(SS1448), PAM of GAS isolate SS1448 (emm86.2), residues 42-375 (from UniProt P49054 42-375) (natural protein)” has a Kd [1] of 7000 nM, a % dimer [12] of 86.7% and a % dimer [13] of 56.4%.

“PAM_(SS1572), PAM of GAS isolate SS1572 (emm223), residues 42-399 (natural protein)” was tested, and the Kd [1] was 40 nM, the koff [1] was 0.0055 s⁻¹ and the kon [1] was 170000 M⁻¹ s⁻¹. For the same molecule, the % dimer [14] was 95% and the % dimer [15] was 75.3%.

“PAM_(SS1574), PAM of GAS isolate SS1574 (emm224), residues 42-360 (from UniProt P49054 42-360) (natural protein)” showed a Kd [1] of 14 nM, a koff [1] of 0.0075 s⁻¹ and a kon [1] of 562000 M⁻¹ s⁻¹. For the same molecule, the % dimer [16] was 100% and the % dimer [17] was 33.5%.

B1: VEK75_(AP53), peptide of PAM_(AP53) residues 97-171 (peptide)
chain: VEKLTADAELQRLKNERHEEAELERLKSERHDHDKKEAERKALEDKLADKQEHLNGALRYINEKEAEAKEKEAEQ
modifications: Paper number minus 12 gives the entry number. N-terminal GS left by thrombin cleavage is omitted
B1 showed a Kd (human plasminogen [18]) of 0.7 nM, a Kd (human plasminogen [19]) of 15 nM and a Kd (human plasminogen [20]) of 45 nM.

B2: PAM_(AP53_long), truncated PAM_(AP53), residues 42-338 (HVR-a1a2-B-c1c2c3-D) (domain or fragment)
chain: NRADDARNEVLRGNLVRAELWYRQIQENDQLKLENKGLKTDLREKEEELQGLKDDVEKLTADAELQRLKNERHEEAELERLKSERHDHDKKEAERKALEDKLADKQEHLNGALRYINEKEAEAKEKEAEQKKLKEEKQISDASRQGLRRDLDASREAKKQVEKDLANLTAELDKVKEEKQISDASRQGLRRDLDASREAKKQVEKGLANLTAELDKVKEEKQISDASRQGLRRDLDASREAKKQVEKALEEANSKLAALEKLNKELEESKKLTEKEKAELQAKLEAEAKALKEQLAK
modifications: Paper number minus 12 gives the entry number. His6 left out. Coiled-coil dimer (87% at 25 C)
With B2 the Kd (human plasminogen [21]) was 2 nM, the koff (human plasminogen [21]) was 0.00013 s⁻¹ and the kon (human plasminogen [21]) was 90000 M⁻¹ s⁻¹. For the same molecule, the Kd (human plasminogen [22]) was 37 nM, the koff (human plasminogen [22]) was 0.0043 s⁻¹ and the kon (human plasminogen [22]) was 120000 M⁻¹ s⁻¹.

B3: PAM_(AP53_medium), truncated PAM_(AP53), residues 42-207 (HVR-a1a2-B-c1) (domain or fragment)
chain: NRADDARNEVLRGNLVRAELWYRQIQENDQLKLENKGLKTDLREKEEELQGLKDDVEKLTADAELQRLKNERHEEAELERLKSERHDHDKKEAERKALEDKLADKQEHLNGALRYINEKEAEAKEKEAEQKKLKEEKQISDASRQGLRRDLDASREAKKQVEKDLA
modifications: Paper number minus 12 gives the entry number. His6 left out. About 11% dimer at 25 C
B3 showed a Kd (human plasminogen [21]) of 2.4 nM, a koff (human plasminogen [21]) of 0.00054 s⁻¹ and a kon (human plasminogen [21]) of 230000 M⁻¹ s⁻¹. For the same molecule, the Kd (human plasminogen [22]) was 16 nM, the koff (human plasminogen [22]) was 0.0103 s⁻¹ and the kon (human plasminogen [22]) was 650000 M⁻¹ s⁻¹.
